Target: CAX^CK31 (Ca2+/H+ antiporter of Caulobacter sp. K31), purified, lacking tags (Caulobacter sp. K31)
Experiment: SEC-MALS

- stoichiometry N: 2
Substance: CAX^CK31 (Ca2+/H+ antiporter of Caulobacter sp. K31), purified, lacking tags (natural protein)

— PMC3571656
